Test results: the nanobody polyreactivity screen of Harvey et al. (2022)

Experiment: yeast display, Sf9 membrane polyspecificity reagent, FACS + sequencing; frameworks hold sequencing errors
In short: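 Using colony PCR, genes from sorted yeast display clones were amplified, then sequenced on MiSeq at 2 × 250 and filtered by CDR length. The clones had been stained with 10% biotinylated, detergent-solubilized Sf9 membrane reagent for 1 hour at 4 °C and sorted by FACS into low and high (top ~1%) gates on anti-HA and streptavidin fluorescence. Polyreactivity labels come from the gate of origin.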

Sequence	polyreactivity (PSR sort gate)
QVQLVESGGGLVQAGGSLRLSCAASGRTFYYNAMGWYRQAPGKERELVAAISSRGGNTYYADSVKGRFTISRDNAKNTVYYQMNSLKPEDTAVYYCARRYPYPAYEYGYWGQGTQVTVSS	high polyreactivity
QVQLVESGGGLVQAGGSLRLSCASTGFTFYRYAMGWYRQARGKERELVAAITRSGSRTYYADSVKGRFTISRDNAKNTVYLQMNSLKPEDTAVYYCNAPRPASTDRRRYNYWGQGTQVTVSS	high polyreactivity
QEQLQESGVGLVQAGGSLRLICEASGSISQAWYMGWYRQAPGKERELVAAINVGAITYYADSVKGRFSISRDNAKNTVYLPMNSLTPDDTAVYYCAVDQYSEAYYDYWGQGTQATVSS	high polyreactivity
QVQLVESGGGLVQAGGSLRLGCAASGSTLYSYAMGWYRQAPGKERELVASISSGASTYYADSVKGRFTISRDNAKNTVYLQMNSLKPEDTAVYYCNADAGSYHTGWVTPWGSDEYDYWGQGTQVTVSS	low polyreactivity
QVQLVESGGGLVQAGGSLRLSSAASGRIFYLYAMGWYRQAPVKERELVAGITSGGRTNYADSVKGRFTISRDNAKNTFFLQMNSLKPEDTAVYYCAAYYWGLYSGYYWRQGTQVTVSS	high polyreactivity
QVQLVESGGGLVQAGGSLRLTCAASGSIFTGNTMGWYRQATGKERELVAAITGSGGRTYYADSVKGRFTISRDNAKNTVYLQMNSLKPEDTAVYYCAADRSYYPDTRTTYGYNYWGQGTQVTVSS	low polyreactivity
QVQLVESGGGLVQAGGSLRLSCAASGRNFGVYTMGWYRQAPGKERELVAAITSGGNTNYADSVKGRFTISRDNAKNNVYLQMNCLKPEDTAVYYCAARYVGNFYYPGHNYWGQVTQVTVSS	low polyreactivity
QVQLVESGGGLVQAGGSLRLSCAASGFTFFSNAMGWYRQAPGKERELVASITNDGSTDADSVKGRFTISRDNAKNTVYLQMNSLKPEDTAVYYCAADFYLWRLPVYAQRYFVRGDYWGQGTQVTVSS	low polyreactivity
EVQLVESGGGLVQPGGSLRLSCAASGYIYSRYRMGWYRQAPGKGREFVAAISGGSSTNYADSVKGRFTISRDNSKYTVYLQMNSLRADDTALYYCAAYKIDSDPRVYWGQGTQVTVSS	low polyreactivity
QDQLVESGGGLVQAGGSLRLSCAASGSIFADYAMGWYRQAPGKERELVAVISRRGGTTYYADSVKGRFTISRDNAKNTVYLQMNSLKPEDTAVYYCAARRSFNEYDSWGHGTQVTVSS	high polyreactivity
QVQLVESGGGLVQAGGSLRLSCSASGSTFYGYAMGWYRQAPGKEWELVAAINWSGGSTYYADSVKGRFTISRDNAKNTVYLQMNSLKPEDTAVYYCNKAWLGSVSRRYYYWGQGTQVTVSS	high polyreactivity
QVQLVESGGGLVQAGGSLRLICAASGNTFKYNAMGWYRQAPGKERELVAAITWRGTSTSYADSVKGRFTISRDNAKNTVYLQMNSLKAEDTAFYYSNAVYYWYGRVAYSFGYWGQGTQVTVSS	high polyreactivity
QVQLVESGGGLVQAGGSLRLSCAASGFIFYRYTLGWSRQAPGKERELVAAITSGGSTYYADSVKGRFTISRDNAKNTVYLQMNSLKPEDSAVYYCAAAYQRWFNRRDYWGQGTQVTVSS	high polyreactivity
QVQLVESGGGLVQAGGSLRLSCAASGFTFYHYAMGWYRQAPGKERELVATISKRGGSTYYADSVKGRFTISRDNAKNTVYLQMNSLKPEDTAVYYCAAKIYWSSLKMDYWGQGTQVTVSS	high polyreactivity
QVQLVESGGGLVQAGGSLRLSCAASGFTIERYAMGWYRQAPGKERELVAVISTSGGSTYYADSVKGRFTISRDNAKNTVYLQMNSLKPEDTAVYYCAKDGSSRGDYHFGWGYYYWGQGSQVTVSS	low polyreactivity
QVQLVESGGGLVQAGGSLRFSCAASGSTTYRYAMGWYRQAPGKERELVAAISSRGGSTYYADSVKGRFTISRDNAKNTVYLQMNSLKPEDTAVYYCAVKDRYSFRYDYWGQGTQVTVSS	high polyreactivity

Sequence	polyreactivity (PSR sort gate)
QVQLVESGGGLVQAGGSLRLTCAASGNIFISYAMGWYRQAPGKEMELVAAISRSGGSTYYADSVKGRFTISRDNEKNSVYLLMNSLKPEDTAVYYCAAYIGQGRYGSWGQGTQVNVSS	high polyreactivity
QVQLVESGAGLVQAGGSLRLSCAASGSTFKRYAMGWYRQAPGKERELVAAITWRGGSTYYADSVKGRFTISRDNAKNTVYLQMNSLKPEDTAVYYSATDYVYRYDYWGQGTQVTVSS	high polyreactivity
QVQLVESGGGLVQAGGSLRLSCAASGFIFRFYAMGWYRQAPGKERELVAGISSSGGSTYYADSLKGRFTISRDNAKTTVYLQMNSLKPEDTAVYYCNAKRSDQSSKTFNYWGQGTQVTVSS	low polyreactivity
QVQLVESGGGLVQAGGSLRLSCAASGRTFSYNAMGWYRQAPGKERELVAAISWSDGSTYYADSVKGRFTISRDNAKNTVYLQMNSLKPEDTAVYYCAVESFYRHASLYDNWGQGTQVTVSS	high polyreactivity
QVQLVESGACLVQAGGRLRLSCAASGRICGLNAMVWYRQAPGKERELVASITYSGGSTYYADSVKGRFTISRDNAKNTVYLQMNSLKPEYTADYYCAADSWYYWYSTYDYWGQGTQVTVSS	high polyreactivity
QVQLVESGGGLVQAGGSLRLSCAASGSTFRYYTMGWYRQAPGKEREFVAAITSSGTSTYYADSVKGRFTISRDNAKNTVYLQMNSLKPEDTAVYYCNKVGIYGSRSRYDSWGQGTQVTVSS	high polyreactivity
QVQLVESGGGLVQAGGSLRLSCAASGSIFLYNAMGWYRQAPGKERELVATITYIGGRTYYADSVKGRFTISRDNAKNTVYLQMNSLKPEDSAVYYCAAEYYVISSPSFYEYDYWGQGTQVTVSS	low polyreactivity
QVQLVESGGGLVQAGGSLRLSCAASGSTFESYDMGWYRPAPGKERELVAAIDWSGGITYYADSVKGRFTISRDNAKNTVYLQMNSLKPEDTAVYYCNADWFVRYPKRVYWSEYDYWGHGTQVTVSS	low polyreactivity
QVQLVESGGGLVQAGGSLRLSCAASGSIFWSNSMGWDRQAPGKERELDAAISQDGGSTNYADSVKGRFTISRDNAKNTVYLQMTSQKPEDTAVYYCAVKYWSYEPPSYSIEYGYWGQGTQVTVSS	low polyreactivity
QVQLVESGGGLVQAGGSLRLSCAASGRIFHGNAMGWYRPAPGKERELVAAITSGGRTFYADSVKGRFTISRDNAKNTVYLQMNRLKPEDTAVYYCNAPSIAGYAEYNSHDYWGQGTQVTVSS	high polyreactivity
QVQLVESGGGLVQAGGSLRLSCAASGNIFLFYVMGWYRQAPVKERELVAAITLSGTNTYYADSVKGRFTISRDNAKNNVYLQMNSLKPEDTAVYYCNADWWSDGYDYWGQRTQVTVSS	low polyreactivity
QVQLVESGGGLVQAGGSLRLSCAASGRTIRRNAMGWYRQAPGKERELVAGISGSGTITYADSVKGRFTISRDNAKNTVYLQMNSLKPEDTAVYYCAARRKSFYTFYYWGQGTQVTVSS	high polyreactivity
QVQLVDSGGGLVQAGGSLRLSCAASGRTFYYYAMGWSRQEPGKEREFDADISGRGGTTYYADSVKGRFTISRDNAKKTVYLLMNSLKPEDTAVYYCAARSVSTLRYTSRKLRYDYWGQGTQVSVSS	high polyreactivity
QVHLGESGGGLVQAGGSLRLSCAASGSIFYGYAMGWYRHAPGKERELVAAITRDGSTNYADSVKGRFTISRDNAKNTVYLQMNSLKPEDTAVYYCAADTRSRRLSLVRRDYWGQGTQVTVSS	high polyreactivity
QVQLVESGVGLVQAGGSLRLSCAASGSIFYDNAMGWYRQAPGKERELVAVITVSGDSTYYADSVKGRFTISRDNAKNTVYLQMNSLKPEDTAVYYCNTDAISGSHFWRYITFGYLDDYWGQGTQVTVSS	low polyreactivity
